Experimental data as given in the supplement of paper PMC12042874.
± gives the uncertainty stated by the source.

Test: amyloid nucleation score (Sup35N fusion, yeast selection) (log enrichment); library NNK2; higher = more nucleation; inactive = no reads after selection
In short: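 Nucleation score: DiMSum log enrichment of output over input reads, centred on the mode score of non-aggregating sequences. Only sequences with at least 100 input reads were kept. Reads came from Illumina sequencing of plasmid inserts before and after 7 days of growth at 30°C without adenine and uracil, in psi-negative yeast expressing Sup35N fused to peptides of 20 random codons after 24 hours of induction with 100 μM copper sulfate.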

Substance	amyloid nucleation score
SSVRCTYGLNCNQRL	2.92 ± 0.076
SSYDLITIKEFIKSGRVK	-0.119 ± 0.35
SSYMSRALSCGHSFGKVGAN	0.697 ± 0.81
SSYRINPRKPLR	0.028 ± 0.63
STAKYVYYTLLR	0.204 ± 0.65
STCKLWGVQWFPGGEDRNWK	-0.155 ± 0.42
STGCSYHFRMIHATVTTYFG	3.59 ± 0.053
STLVWSEIIF	0.592 ± 0.47
STNIRSLMLLFCNNIEQASV	7.816 ± 0.038
STPIAEV	0.6 ± 0.29
STPLGPFLYF	-0.961 ± 0.76
STSFRASSGDKYEFDVKHLV	0.195 ± 0.76
STSIPCSEHDFVCYHMVCGF	-0.652 ± 0.37
STVVLSHRCLLSCE	-0.656 ± 1.1
STWVWMSFCVNLLDPHACGS	7.542 ± 0.03
STWWWYLCIQARLMCMRFLA	-0.357 ± 0.23
STYRSASMVQVGRLVHGNQW	5.38 ± 0.063
STYSIIYV	0.831 ± 0.17
SVAWVLLWV	0.636 ± 0.81
SVCLSSYFHCKRSVMWFYKV	-0.363 ± 0.74
SVFIGVVPNESQCYV	0.069 ± 0.39
SVFMFCVSEL	-0.049 ± 0.63
SVGGR	-0.288 ± 0.8
SVIASWKSCLSLLVFQH	-0.695 ± 0.64
SVKQLTPD	-0.319 ± 0.6
SVKWKTRDEKS	-0.711 ± 0.54

Substance	amyloid nucleation score
SVLAGDLNLRLVFYCMFMYH	1.61 ± 0.31
SVLGTKVRVYRSGWTLRIFE	-0.456 ± 0.37
SVLHPLTSKWNGKKWV	inactive
SVLTLTSIIYLGSCKFLNFM	6.241 ± 0.032
SVNASGT	-0.114 ± 0.8
SVNWEDKDLGVGSNLEIASL	-0.889 ± 1
SVPDFDRWAFTGRVQTYADC	-0.614 ± 0.79
SVRLNFEFRDYDCRQVLSIF	-0.825 ± 1.1
SVRVA	1.66 ± 0.26
SVSLNCSPLFFYFRRYKVSR	6.052 ± 0.038
SVSVEYWCSLWDRRDKGSSQ	0.619 ± 0.81
SVSYTNVLYHIKVDEFFNEC	1.3 ± 0.25
SVTVHFENVVDIRYVCVTMG	0.341 ± 0.65
SVVGFTPQKL	-0.049 ± 0.34
SVYAGVLM	-0.555 ± 0.63
SVYMPSVCNKLFFRGCGYGF	3.04 ± 0.096
SWEKQ	inactive
SWLFRYYVERVNDVRG	0.191 ± 0.65
SWVRVTSPSIATFSATYCVL	0.619 ± 0.81
SWYILILGFRGKIIYPFRLG	-1.03 ± 0.76
SWYVGLCMYVPWYERRANGH	11.04 ± 0.067
SYDDGRFGVGCCFIEGYRI	-1.41 ± 1
SYDFSSINRDKTSSSRSLPR	-0.474 ± 1
SYENTSV	0.376 ± 0.66
SYFGDFERFSFSCDHER	-0.471 ± 0.61
SYFHRWRATNFRTHKEAC	-1.02 ± 0.34

Substance	amyloid nucleation score
SYGNDNDGTWWS	0.676 ± 0.57
SYHAYRG	-0.064 ± 0.37
SYLFIDDTVDCQLKERRYPN	-0.763 ± 0.62
SYNLETFIFLWKESG	inactive
SYNTRFIASSCSGSY	-1.06 ± 0.76
SYPYFMLRTTLNTLKTWFWM	-0.403 ± 1
SYTWFSYIWYSLVFLRD	-0.088 ± 0.8
SYYFQAFDYKFLSMVIDAYG	7.085 ± 0.043
SYYINFISVRILDLNKFNVQ	5.03 ± 0.11
SYYTL	inactive
SYYVLRASTELYGFHVFFLR	-0.017 ± 1
TAALRVILGCMYNIWQMWHR	1.06 ± 0.57
TALATDTSFRRSRRQTNQIF	0.706 ± 0.54
TAMFPHVRYSDTSYPAKRAV	-0.947 ± 0.41
TCEYVVN	-0.659 ± 0.54
TCFEEFLQKFMYCATFMKKM	-0.403 ± 0.78
TCFVC	5.746 ± 0.052
TCIVSRRSCTCNRSQSGYRR	1.08 ± 0.22
TCLMVVE	0.539 ± 0.66
TCLTFRFI	inactive
TCRHRLHVSFVYDVLRQIVT	0.043 ± 0.21
TCTNLSCTGWKNGVCVCM	8.536 ± 0.057
TCVKASNRG	-0.608 ± 0.55
TCVLKVFVL	-1.43 ± 1.1
TCVVSTYLINIQKNVASFER	6.816 ± 0.041
TDALANSNRPSKFQVH	-0.059 ± 0.37

Substance	amyloid nucleation score
TDECWIGYFNSSAI	-0.053 ± 1
TDGELDSPQ	0.165 ± 0.37
TDLCCRLSIQLINHVYHSCL	0.351 ± 0.74
TDLSLWNTILRVAG	0.05 ± 0.31
TDRLRFIYSGGVEFFVPVLL	inactive
TDVRGDTSRGLGSFKLFRIM	-0.354 ± 0.76
TDWGTLARMGLASLC	inactive
TDWVW	0.593 ± 0.2
TDYQSVVDTVG	0.019 ± 0.32
TEASLMWRYWDGDPWQWSFD	inactive
TEEWFFCPRLTLKFLKEVHK	4.94 ± 0.092
TEGYNMCDWCSSSLVKSVRM	-0.223 ± 0.49
TEILILMIGLIAGLYCEIRF	-0.231 ± 0.79
TELHLTDFWLRIMRQLFRFS	1.61 ± 0.52
TFCSPR	0.49 ± 0.5
TFELNLLVPAPNCRFHDLRR	1.46 ± 0.22
TFFIMEIFDFC	1.8 ± 0.15
TFGRRATDNAASMPVSMRGR	0.424 ± 0.64
TFILFGRFEQTKVSVW	3.67 ± 0.075
TFLWLT	2.33 ± 0.09
TFLYREVPLRRYR	0.135 ± 0.63
TFRCVVRPLGMRSVLMAGSG	0.852 ± 0.47
TFVRVPFWFRKN	9.788 ± 0.071
TFWNFGLAVQTARGIWALSW	6.57 ± 0.082
TFYSLGLNISMFSLPGLAGY	0.683 ± 0.35
TFYSSWWSNSECYCS	2.45 ± 0.1

Substance	amyloid nucleation score
TGAIRGGSVQRVHSLINPRM	-0.414 ± 0.55
TGCMSMLFKCAGMCQWWSGG	6.71 ± 0.086
TGDPTLLMAYSRSYVWRSER	1.28 ± 0.3
TGHKECVW	0.762 ± 0.47
TGHLEEMYKYDALYSSAKRA	1 ± 0.48
TGLGLIGLHSLVKVSRV	-0.255 ± 0.65
TGLNLFRDSQTGELGGGYTR	5.495 ± 0.049
TGNVCQDEVNAIGRFP	-0.864 ± 0.38
TGVCPR	-0.674 ± 0.5
TGYLVWFG	0.951 ± 0.3
TGYVE	0.293 ± 0.26
THIITWSVNFTKGWQCFESQ	1.36 ± 0.38
THRTGLDK	0.319 ± 0.36
THVDFLWIVNLGGSHI	7.519 ± 0.041
TIGFLFLVNWPSWNFLEEVF	inactive
TIIKDIVIVDVFSSN	1.53 ± 0.15
TITNCP	inactive
TIWGYARC	2.67 ± 0.11
TIYHSGRCLRKKGRELW	-0.139 ± 0.37
TIYPDMETHLV	-0.075 ± 0.49
TLAFVNNYDLRLELDRIEVP	inactive
TLCGFNKGAAIGWCTWNSEK	4.05 ± 0.13
TLCMRLN	1.64 ± 0.086
TLETSNILFYGEDVKLSSQV	0.078 ± 0.34
TLFSLREGLFNGIWTVSLSW	-1.09 ± 1.1
TLGKVGHYRRNNNMPVARFD	-0.11 ± 0.74

Substance	amyloid nucleation score
TLGLLDHWSLREWDTTGWVE	0.691 ± 0.37
TLHFKFMVIRRN	-0.254 ± 0.63
TLHKLFQMNLGRR	-0.738 ± 0.44
TLHWSMR	8.355 ± 0.034
TLIGKFRTNNFRSMVDAESK	-0.59 ± 0.63
TLLDNRRGCVMSWRGFLWMR	-0.363 ± 0.65
TLLKHTSSTSIVYRRHALEI	1.35 ± 0.29
TLLLDQCDSRVDFWSNVP	-0.088 ± 1.1
TLLSFRTVDNKIYKVLWVKT	0.418 ± 0.48
TLLWYCTIADRNSNVRMVAS	0.966 ± 0.24
TLNVRIAS	-0.124 ± 0.62
TLPWFGSFLRGVFKVPLIRG	2.27 ± 0.1
TLQKELSHVQETRYTW	-0.288 ± 1
TLSHPWADLLVSETHMVYR	-0.381 ± 1.1
TLSLSYALLSCVSVIKCPLV	-0.451 ± 0.79
TLSSFL	-1.55 ± 0.41
TLVCSKAFKYVGV	0.131 ± 0.46
TLVCWCLIFNVDKPFCVLML	inactive
TLWEGVFKRSWLGVSGSKVE	0.401 ± 0.23
TLWVWVCCFQDWCSVSRGGR	8.892 ± 0.03
TMCMPAHMPYQHVSYLDILT	-0.161 ± 1.1
TMFEGFRCLRR	0.923 ± 0.81
TMGTSSLVSAQLICRGTLAK	0.172 ± 0.62
TMKHLFRDGRSIRLLTCWVS	-0.931 ± 0.42
TMLCYYINFRLIVYRSWYKQ	-0.788 ± 0.34
TMLEFNCSYLNI	2.98 ± 0.083

Substance	amyloid nucleation score
TMLFTALDASHWG	6.696 ± 0.05
TMMSQVGMDR	0.377 ± 0.34
TMPFWKDFQT	0.183 ± 1
TMRYMVQMLRFEQSGLGQWV	4.19 ± 0.076
TMSVDCWLCNLRMEMFLELY	-1.54 ± 0.75
TMWYIGKITRPSLRAGSGFT	-1.16 ± 0.48
TNGYSVRLYKGSCVILIGL	5.12 ± 0.092
TNITGVIRVL	-0.211 ± 0.31
TNLRAPEHHSHYCSRLRLD	-0.267 ± 0.35
TNLYNDIGDRMFSSNWSTPV	-0.02 ± 1.1
TNYKRCCV	-0.12 ± 0.32
TPIVGMLY	-0.477 ± 0.55
TPLEYF	-0.19 ± 0.3
TQCRFRTSRVDICKIVKPGS	0.177 ± 0.65
TQMTMEGAYPCCVVVP	0.903 ± 0.74
TQNTTYNAYMNLKE	-1.24 ± 1.1
TRCGE	-0.134 ± 0.25
TRGKRVPPDVLSSPKRIANV	1.12 ± 0.46
TRISGLGPDRDFSFRAASAK	-0.446 ± 0.76
TRKILEMVFLLTAVNYNGVP	-1.12 ± 0.26
